Laboratory results published in patent publication US20190055547A1.

Legend:
Pak1 [1] = molecular target: Pak1 (UniProt Q13153); test: competitive phage ELISA IC50 compared with KD (~IC50) of primary-screen monobodies
Pak1 [2] = molecular target: Pak1 (UniProt Q13153); test: competitive phage ELISA: biotinylated Pak1 immobilised, varying non-biotinylated Pak1 mixed with phage displaying D3

fold improvement over the binding of the monobodies from the primary screen (Pak1 [1]): 1000 fold
IC50 (Pak1 [2]): 1.5 nM
B1: Clone D3 (designed binder, not shown: large carriers; small tags and cut ends)
chain: EQKLISEEDLMAVSDVPRKLEVVAATPTSLLISWDAPWKKTRYYRITYGETGGNSPVQEFTVPGSKSTATISGLKPGVDYTITVYAVTASWPWSKPISINYRTSGGGGSGGGGSGGGGSGGGGSGGGGSDYKDDDDKLASAMAVSDVPRKLEVVAATPTSLLISWDAPSRHIYYYRITYGETGGNSPVQEFTVPGSKSTATISGLKPGVDYTITVYAVTDLYSNSKPISINYRTS
